Data on 1 substance can be found in publication PMC10891854.

This test concerns the target recombinant Pseudothermotoga hypogea iron-containing alcohol dehydrogenase (Pseudothermotoga hypogea). Description: SEC; Superdex 200 (2.6 x 60 cm), 50 mM Tris-HCl pH 7.8, 100 mM KCl, 2 mL/min; native size worked out from the elution volume against standard proteins and compared with the subunit size by SDS-PAGE. For orientation: In gel filtration, larger molecules generally elute earlier.

In the case of “recombinant Pseudothermotoga hypogea iron-containing alcohol dehydrogenase (enzyme)”, the stoichiometry N – broadly, the number of molecules, sites or subunits per partner or assembly – was 2.
